The target in this test is human nesfatin-1 (human) (UniProt P80303). The experiment in a line: AUC; SV-AUC, 20 °C, 50 000 rpm, buffer B with 300 or 500 μM ZnCl2; hN1 at 0.7, 1.0, 1.3 mg/ml; monomer to dimer.

Where “and” joins values, the source holds several entries; their conditions need not be identical. Equal values may be shown once.

For orientation: stoichiometry N means a count of units in the complex or per binding partner. With “human nesfatin-1 (from UniProt P80303 25-106) (peptide)”, the percent of the two main sedimenting species in the larger (dimer) fraction is 58% and 45% and 51%; the stoichiometry N was 2.

The values are drawn from PMC9590162.
